Laboratory results taken from US20210388081A1 (Memorial Sloan Kettering, published 2021).

T1: FcRL1, overexpressed on 3T3 cells (UniProt Q96LA6 17-429, limits assumed)
T1 construct: whole, on cells
T1 sequence (looked up): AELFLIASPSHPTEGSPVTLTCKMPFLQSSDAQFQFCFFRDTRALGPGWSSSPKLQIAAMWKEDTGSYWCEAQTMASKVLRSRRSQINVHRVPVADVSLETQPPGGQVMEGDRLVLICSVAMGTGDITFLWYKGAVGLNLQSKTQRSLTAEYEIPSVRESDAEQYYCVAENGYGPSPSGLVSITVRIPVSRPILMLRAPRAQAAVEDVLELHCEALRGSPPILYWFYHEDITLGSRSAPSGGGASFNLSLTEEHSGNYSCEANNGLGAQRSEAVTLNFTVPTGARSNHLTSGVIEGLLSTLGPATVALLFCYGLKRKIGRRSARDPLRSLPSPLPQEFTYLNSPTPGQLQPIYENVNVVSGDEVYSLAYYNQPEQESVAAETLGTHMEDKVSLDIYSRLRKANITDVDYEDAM

T2: FcRL2, overexpressed on 3T3 cells (UniProt Q96LA5 20-508, limits assumed)
T2 construct: whole, on cells
T2 sequence (looked up): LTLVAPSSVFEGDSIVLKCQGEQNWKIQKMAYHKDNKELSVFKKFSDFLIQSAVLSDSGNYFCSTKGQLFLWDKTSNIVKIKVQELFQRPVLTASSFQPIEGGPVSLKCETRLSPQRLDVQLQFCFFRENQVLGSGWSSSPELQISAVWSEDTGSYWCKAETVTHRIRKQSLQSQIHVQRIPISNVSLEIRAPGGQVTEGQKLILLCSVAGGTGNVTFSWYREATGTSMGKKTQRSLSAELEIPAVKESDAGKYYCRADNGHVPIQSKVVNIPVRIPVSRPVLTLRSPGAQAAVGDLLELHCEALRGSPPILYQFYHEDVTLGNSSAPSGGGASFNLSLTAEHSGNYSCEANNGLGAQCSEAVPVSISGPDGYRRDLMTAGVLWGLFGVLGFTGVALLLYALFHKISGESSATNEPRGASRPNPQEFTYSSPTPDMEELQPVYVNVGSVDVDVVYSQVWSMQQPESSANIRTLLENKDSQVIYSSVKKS

T3: FcRL3, overexpressed on 3T3 cells (UniProt Q96P31 18-734, limits assumed)
T3 construct: whole, on cells
T3 sequence (looked up): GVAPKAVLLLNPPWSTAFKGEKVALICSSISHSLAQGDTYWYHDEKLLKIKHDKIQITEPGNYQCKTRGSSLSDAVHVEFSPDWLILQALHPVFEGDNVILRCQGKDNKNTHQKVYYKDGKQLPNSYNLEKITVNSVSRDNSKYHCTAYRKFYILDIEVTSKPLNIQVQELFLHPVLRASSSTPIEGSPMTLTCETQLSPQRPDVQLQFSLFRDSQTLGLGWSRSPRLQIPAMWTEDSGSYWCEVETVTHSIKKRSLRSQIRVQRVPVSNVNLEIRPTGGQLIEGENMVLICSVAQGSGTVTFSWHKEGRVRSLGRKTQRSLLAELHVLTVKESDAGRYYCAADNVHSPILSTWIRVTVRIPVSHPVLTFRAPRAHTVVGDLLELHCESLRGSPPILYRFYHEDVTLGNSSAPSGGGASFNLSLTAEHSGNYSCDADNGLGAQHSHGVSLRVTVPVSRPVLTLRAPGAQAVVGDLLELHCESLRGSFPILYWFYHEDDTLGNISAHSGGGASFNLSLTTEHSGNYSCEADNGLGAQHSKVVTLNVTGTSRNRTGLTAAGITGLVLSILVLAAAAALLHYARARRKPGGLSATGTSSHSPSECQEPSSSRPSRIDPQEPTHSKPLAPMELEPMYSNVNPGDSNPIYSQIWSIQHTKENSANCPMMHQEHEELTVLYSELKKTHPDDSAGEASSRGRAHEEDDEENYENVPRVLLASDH

T4: FcRL4, overexpressed on 3T3 cells (UniProt Q96PJ5 20-515, limits assumed)
T4 construct: whole, on cells
T4 sequence (looked up): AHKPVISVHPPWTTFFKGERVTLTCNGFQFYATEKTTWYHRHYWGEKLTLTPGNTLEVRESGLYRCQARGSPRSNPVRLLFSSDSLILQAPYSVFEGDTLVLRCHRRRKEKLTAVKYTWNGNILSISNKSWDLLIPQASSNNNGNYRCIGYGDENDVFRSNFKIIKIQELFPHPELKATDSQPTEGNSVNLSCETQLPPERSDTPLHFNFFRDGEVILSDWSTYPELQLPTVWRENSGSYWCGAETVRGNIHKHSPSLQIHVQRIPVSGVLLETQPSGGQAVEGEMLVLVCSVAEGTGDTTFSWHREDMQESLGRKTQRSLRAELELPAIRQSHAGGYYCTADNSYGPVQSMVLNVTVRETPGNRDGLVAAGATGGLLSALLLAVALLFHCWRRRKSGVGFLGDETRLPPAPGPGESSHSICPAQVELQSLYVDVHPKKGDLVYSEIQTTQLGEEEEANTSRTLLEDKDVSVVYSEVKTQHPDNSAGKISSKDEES

T5: FcRL6, overexpressed on 3T3 cells (UniProt Q6DN72 20-434, limits assumed)
T5 construct: whole, on cells
T5 sequence (looked up): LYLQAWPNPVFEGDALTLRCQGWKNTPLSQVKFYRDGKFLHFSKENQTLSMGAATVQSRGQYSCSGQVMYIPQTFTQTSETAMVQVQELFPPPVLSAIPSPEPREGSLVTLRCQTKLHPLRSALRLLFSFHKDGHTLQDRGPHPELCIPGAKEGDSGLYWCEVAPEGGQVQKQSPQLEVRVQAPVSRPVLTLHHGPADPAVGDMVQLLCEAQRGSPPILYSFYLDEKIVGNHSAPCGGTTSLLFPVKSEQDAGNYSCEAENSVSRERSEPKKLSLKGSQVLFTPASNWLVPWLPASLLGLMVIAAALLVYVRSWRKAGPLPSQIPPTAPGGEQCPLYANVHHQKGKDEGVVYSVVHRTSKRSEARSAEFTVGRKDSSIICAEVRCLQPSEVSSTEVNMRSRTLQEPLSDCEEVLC

B1: ET200-024 (scFv)
scFv: NFMLTQPHSVSESPGKTVTISCTGSSGSIASNYVQWYQQRPGSAPTTVIYEDNQRPSGVPDRFSGSIDSSSNSASLTISGLKTEDEADYYCQSYDSSNLWVFGGGTKLTVLGSRGGGGSGGGGSGGGGSLEMAQMQLVQSGAEVKKPGSSVKVSCKASGGTFSSYAISWVRQAPGQGLEWMGGIIPIFGTANYAQKFQGRVTITADESTSTAYMELSSLRSEDTAVYYCARYNYYYYDSWGQGTLVTVSSTSGQAGQHHHHHHGAYPYDVPDYAS
notes: screened as phage clone; entry is VL-linker-VH-His tag-HA tag
B2: ET200-037 (scFv)
scFv: SYVLTQPPSVSVAPGKTARITCGGNNIGSKSVHWYQQKPGQAPVLVIYYDSDRPSGIPERFSGSNSGNTATLTISRVEAGDEADYYCQVWDSSSDHPYVFGTGTKVTVLGSRGGGGSGGGGSGGGGSLEMAQMQLVQSGAEVKKPGASVKVSCKASGYTFTSYGISWVRQAPGQGLEWMGWISAYNGNTNYAQKLQGRVTMTTDTSTSTAYMELRSLRSDDTAVYYCARSMFGAHDSWGQGTLVTVSSTSGQAGQHHHHHHGAYPYDVPDYAS
notes: as for B1

Key:
[1] = target: anti-FcRL5/CD3 bispecific antibody generated using the ET200-104 scFv; experiment: ELISA, ET200-104 coated at 1 µg/ml on a Nunc Maxisorp plate; for some dilutions of the secondary Ab
[2] = target: anti-FcRL5/CD3 bispecific antibody generated using the ET200-117 scFv; experiment: ELISA, ET200-117 coated at 1 µg/ml on a Nunc Maxisorp plate; for some dilutions of the secondary Ab
SLAMF9 protein = SLAMF9 protein (UniProt Q96A28 19-236, limits assumed); experiment: phage clone on SLAMF9 protein
[3] = target: T1, FcRL1, overexpressed on 3T3 cells; experiment: phage clone on 3T3-FcRL1 cells
[4] = target: T2, FcRL2, overexpressed on 3T3 cells; experiment: phage clone on 3T3-FcRL2 cells
[5] = target: T3, FcRL3, overexpressed on 3T3 cells; experiment: phage clone on 3T3-FcRL3 cells
[6] = target: T4, FcRL4, overexpressed on 3T3 cells; experiment: phage clone on 3T3-FcRL4 cells
[7] = target: T5, FcRL6, overexpressed on 3T3 cells; experiment: phage clone on 3T3-FcRL6 cells

SLAMF9 protein, sequence (Q96A28 19-236 limits assumed): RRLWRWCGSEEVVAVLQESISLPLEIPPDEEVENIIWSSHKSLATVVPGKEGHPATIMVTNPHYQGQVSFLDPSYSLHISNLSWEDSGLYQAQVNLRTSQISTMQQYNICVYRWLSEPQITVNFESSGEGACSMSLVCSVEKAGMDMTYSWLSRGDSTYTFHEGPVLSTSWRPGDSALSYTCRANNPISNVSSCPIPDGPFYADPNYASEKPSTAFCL
anti-FcRL5/CD3 bispecific antibody generated using the ET200-117 scFv, sequence (scFv, as listed by the source limits assumed, form in doubt): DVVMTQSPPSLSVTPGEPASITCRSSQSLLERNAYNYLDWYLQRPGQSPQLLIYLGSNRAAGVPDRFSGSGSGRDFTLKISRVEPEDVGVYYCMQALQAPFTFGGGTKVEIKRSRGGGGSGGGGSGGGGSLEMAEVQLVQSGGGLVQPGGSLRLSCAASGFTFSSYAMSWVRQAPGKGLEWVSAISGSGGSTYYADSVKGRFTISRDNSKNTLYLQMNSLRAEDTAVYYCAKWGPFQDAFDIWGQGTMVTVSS

Row | Molecule | OD [1] [OD] | OD [2] [OD] | binding result (SLAMF9 protein) | binding result [3] | binding result [4] | binding result [5] | binding result [6] | binding result [7]
1 | Goat Anti-Human Ig-HRP (Southern Biotech; #2010/05) (antibody) | > 1 | > 1 |  |  |  |  |  | 
2 | B1 |  |  | no binding | no binding | no binding | no binding | no binding | no binding
3 | B2 |  |  | no binding | no binding | no binding | no binding | no binding | no binding
